The record followed here is the nanobody polyreactivity screen of Harvey et al. (2022).

The data set is described as follows: yeast display, Sf9 membrane polyspecificity reagent, FACS + sequencing; frameworks hold sequencing errors. Summed up:
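A nanobody's polyreactivity label depends on the gate it was sorted from. Yeast display cells were stained with 10% biotinylated, detergent-solubilized Sf9 membrane reagent for 1 hour at 4 °C, enriched on streptavidin microbeads and sorted by FACS. The low and high (top ~1%) gates were set on anti-HA fluorescence for expression and streptavidin fluorescence for reagent binding.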
“QVQLVESGGGLVQAGCSLRLSCDASGSIFTWYAIGWYRQAPGKERELVAAITRGGSTYADSVKGRFTISRDNAKNNVYLQMNSLKPEDSAVYYCAARRVPIRVGGYPYYYWGQGSQVTVSS”: the “polyreactivity (PSR sort gate)” value is “low polyreactivity”.

Take “QVQLVESGGGLVQAGCSLRLSFAASGFSFRRYALGSYIPAPGKERELVAAITNSGGSTYYADSVKGRFTISRDNAKNSVYLQLNSLKPEDTAVYYCVALRSACAYDYWGQGTQVTVSS”: the “polyreactivity (PSR sort gate)” value is recorded as “high polyreactivity”.

Take “QVQLVESGGGLVQAGCSLRLSFAASGRTLVPYSMGWYRQAPGKERELVAAKSSGGSTNYADSVKGRFTISRDNAKNTVYLQMNSLKPEDTAVYSCAAYDSVQKYWILGFDYWGQGTQVTVSS”: the “polyreactivity (PSR sort gate)” value is reported as “low polyreactivity”.

Turning to “QVQLVESGGGLVQAGCSLRLSSAASGSIFDDNALGRYRPAPGTDRELVAAISDNDGSTYYADSVKGRFTISRDNAKTTVYVQMNSLKADETAVYYCAATAQEWYPAVYNQYYYWGQGTQVTVSS”, the “polyreactivity (PSR sort gate)” value was “low polyreactivity”.

On to “QVQLVESGGGLVQAGCSLRLSSPASGRIFWANVMGWYRQAPGKERELVAAISYSGTGTYYADSVKGRFTISPDYAKNTVYLQMNSLKPEDTAFYYFAKAPYIYYWGQGTHVTVSS”, for which the “polyreactivity (PSR sort gate)” value is “high polyreactivity”.

On to “QVQLVESGGGLVQAGCSLRLSWAASGRIIKYNAMGWYRQAPGKERELVAVITSGGSTYYAYSVKGRFTISRDNAKNTVYLQMNSLKPEDTAVYYCAAGFGDGPGNGYYSRYSWDDDYWGQGTQVTVSS”, for which the “polyreactivity (PSR sort gate)” value was “low polyreactivity”.

In the case of “QVQLVESGGGLVQAGCSLRLTCAASGFIFYYNAMGWYRQAPGKQKELVAAISWSDGGTYYADSVKGRFTISRDNAKNTVSLQMNRLKPEDTAVYYFSGDIDNWSEYDYWGQGTQVTVSS”, the “polyreactivity (PSR sort gate)” value was “low polyreactivity”.

For the sequence “QVQLVESGGGLVQAGCSRRLRCAASGFTFRLYAMGWSRQAPGKERELVAATTSGGSTYYADSVKGRFTISRDNAKNTVYLQMNSLKPEDTAVYYCNKLYRTSVEYDYWGQGTLVTVSS”, the “polyreactivity (PSR sort gate)” value is recorded as “high polyreactivity”.

“QVQLVESGGGLVQAGCTLRLSSAASGRIYRYNVMGWSRQAPGKESELVAGISSGGSTNYADSVKGRFTISRDNAKNTVYLQMTSLKPEDTAVYFCSKRWLNAKPYGQAMYSWGQGTQVTVSS”: the “polyreactivity (PSR sort gate)” value is on record as “high polyreactivity”.

With “QVQLVESGGGLVQAGFSLRLSCAASGNIYYKYAMGWYRQAPGKERELVAAITWRVVRTYYADSVKGRFTISRDNAKNTVYLQMNSLKPEDTAVYYCAALSRQSGDYWGQGTQVTVSS”, the “polyreactivity (PSR sort gate)” value is “high polyreactivity”.

Regarding “QVQLVESGGGLVQAGFSLRLSCAASGSTFQSYTMGRSRQAPGKERELVAAISSSGGRTYYADSVKGRYTISRDYAKNTVYLQMNSLNPEDTAVYYCAAVSKSWRGATWYDYWGQGTQVTVSS”, the “polyreactivity (PSR sort gate)” value is recorded as “high polyreactivity”.

As to “QVQLVESGGGLVQAGGCLRISCAASGSIFPFYVMGRYRQAPGKERELVAAITRSGGSTYYADSVKGRFTISRDNAKNTVYLQMNSLKPEDTAVYYCAKRPHHGSTKYNYWGQGTQVTVSS”, the “polyreactivity (PSR sort gate)” value is reported as “low polyreactivity”.

As for “QVQLVESGGGLVQAGGCLRKSCAASGFTFFSYARGWSRQAPGKERELVAGINSSGGSTNYADSVKGRFTISRDNAKNTVYLLMNSLKPEDTAVYYCNADLRSEYDYWGQGTQVTVSS”, the “polyreactivity (PSR sort gate)” value is reported as “low polyreactivity”.

Take “QVQLVESGGGLVQAGGCLRLSCAASGFTFIYYVMGWYRQAPGIERELVAAINGRGDRKYYADSVKGRFTISRDNAKNTVYLQMTSLKPEETAVYYCNARTHTWGYSAKFDYWGQGTQVTVSS”: the “polyreactivity (PSR sort gate)” value is “high polyreactivity”.

In the case of “QVQLVESGGGLVQAGGCLRVSCAASGFISGYYAMGGYSQAPGIERELVAAIDWIGGSTYYAESVKGRFTISRDNAKNTEYFQMNSLKPEDTAVYDCAASYKYGSSWGDGYWGQGTQVTVSS”, the “polyreactivity (PSR sort gate)” value is “low polyreactivity”.

Consider “QVQLVESGGGLVQAGGGLRLSCAASGFTFTKYAMGLYRQAPGKERELVAAITSGTSTYYADSVKGRFTISRDNAKNTVYLQMNSLKPEDTAVYYCAAPLYGRYSYGYWGQGTQVTVSS”, for which the “polyreactivity (PSR sort gate)” value is “high polyreactivity”.

For the sequence “QVQLVESGGGLVQAGGGLRLSCAASGRTIPTYAMGWYRQAPGKERELVATITSAGSTNYADSVKGRFTISRDNAKNTVYLQMNSLKPEDTAVYYCAARRRLAWGQGTQVTVSS”, the “polyreactivity (PSR sort gate)” value is reported as “high polyreactivity”.

For the sequence “QVQLVESGGGLVQAGGGLRLSCAASGSYYKYYAMGWYRQAPGKEREFVAAITRSGGSTYYADSVKGRFTISRDNAKNTDYLQMNSLKPEDTAVYYCATDLRTRNYDYWGQGTQVTVSS”, the “polyreactivity (PSR sort gate)” value was “high polyreactivity”.

Consider “QVQLVESGGGLVQAGGILRLSCAACGITVTSYAMGWYRQAPGKERELVAVITGTGGITYYADSVKGRFTISRDNAKNTVYLQMNSLKPEDTAVYYCAAELELREYDYWGQGNQVTVSS”, for which the “polyreactivity (PSR sort gate)” value is on record as “high polyreactivity”.

As for “QVQLVESGGGLVQAGGILRLSCAASGFIFNSYAMGWYRQAPGKERELVAAITKSGGRTYYADSVKGRFTISRDNEKNTVYFQMNSLKPEDTAVYYCAARAYRSSVYRGDYWGQGTQVTVSS”, the “polyreactivity (PSR sort gate)” value is on record as “high polyreactivity”.

On to “QVQLVESGGGLVQAGGILRLSCAASGFIIRGNVMGWYRQAPGKERELVAAISGRGGSTYYADSVKGRFTISRDNAKNTVYLQMNSLKPEDTAVYYCNAAGLYNSRLDYWGQGTQVTVSS”, for which the “polyreactivity (PSR sort gate)” value was “high polyreactivity”.

For the sequence “QVQLVESGGGLVQAGGILRLSCAASGFTFQNNAMGWYRQAPGKERELVARITRSDGSTYYADSVKGRFTISRDNAKNTVYLQMNSLKPEDNAVYYCAARYGLLGSSRGGYWGQGTQVTVSS”, the “polyreactivity (PSR sort gate)” value is “low polyreactivity”.

Take “QVQLVESGGGLVQAGGILRLSCAASGFTFWYYVMGWYRQAPGKERELVAAITSSGDSTYYADSVKGRFTISRDNAKNTVYLQMNSLKPEDTAVYYCAAQRYPFERVYWGQGTQVTVSS”: the “polyreactivity (PSR sort gate)” value is recorded as “high polyreactivity”.

Consider “QVQLVESGGGLVQAGGILRLSCAASGFTSWDNDMGWYRQAPGKERELVAAISRGGSTNYADSVKGRFTLSRDNAKNTVYLQMNSLKPEDPAVYYCATAAVTPVWYDYWGQGTQVTVSS”, for which the “polyreactivity (PSR sort gate)” value is on record as “low polyreactivity”.

For the sequence “QVQLVESGGGLVQAGGILRLSCAASGIIFGYNAMGWYRQAPGKERELVAAISYGGGRTYYADSVKGRFTISRDNAKNSVYLQMNSLKPEDTAVYYCAAQYFASRSYGYDYWGQGTQVTVSS”, the “polyreactivity (PSR sort gate)” value is listed as “high polyreactivity”.

As for “QVQLVESGGGLVQAGGILRLSCAASGIIFRKNAMGWYRQAPGKERELVAAISSTGASTNYADSVKGRFTISRDNAKNTVYLQMNSLKPEDTAVYYCAASRTRYWKYDYWGPGTQVTVSS”, the “polyreactivity (PSR sort gate)” value is reported as “high polyreactivity”.

Regarding “QVQLVESGGGLVQAGGILRLSCAASGLIIGEYDMGWYRQAPGKERELVAAMSDRGTSTYYADSVKGRFTISRDNAKNTVDLPMNSLKPEDTAVYYCATDRIYYYSWEYDYWGQGTQVTVSS”, the “polyreactivity (PSR sort gate)” value is “low polyreactivity”.

With “QVQLVESGGGLVQAGGILRLSCAASGLTFEQYAMGWYRQAPGKERELVAAISWSGGRTYYADSVKGRFTISRDNAKNTVYLQMNSLKPEDTAVYYCAKDRGCPFYWRYPLGYWGQGTQVTVSS”, the “polyreactivity (PSR sort gate)” value is reported as “high polyreactivity”.

Take “QVQLVESGGGLVQAGGILRLSCAASGNIFAFYAMGWYRQAPVKERELVAAITDGTTTNYADSVKGRFTISRDNAKNTVYLQMNSLIPEDTAVYYSAADTGWWPWLERFRHYYYWGQGTQVTVSS”: the “polyreactivity (PSR sort gate)” value was “low polyreactivity”.

In the case of “QVQLVESGGGLVQAGGILRLSCAASGRIFCSYAMGWYRQAPGKERELVAAITRGASTNYADSVKGRFTISRDNAKNIVYLQMNSLKPEDTAVYYCAAGWGRYPILGYYYWGQGTQVTVSS”, the “polyreactivity (PSR sort gate)” value was “high polyreactivity”.

On to “QVQLVESGGGLVQAGGILRLSCAASGRIFGPYTMGWYRQAPGKEREFVAAISRSGDSTYYADSVKGRFTISRDNAKNTVYLQMNSLKPEDTAVYYCAAKYGTRLSAYYYWGQGTQVTVSS”, for which the “polyreactivity (PSR sort gate)” value was “high polyreactivity”.

As to “QVQLVESGGGLVQAGGILRLSCAASGRIFQHYPMGWYRQAPGKERELVAAISRSGDSTYYADSVKGRFTISRDNAKNTVYLQMNSLKPEDTAVYYCKIVRYSFLYDSWGQGTQVTVSS”, the “polyreactivity (PSR sort gate)” value is listed as “high polyreactivity”.

On to “QVQLVESGGGLVQAGGILRLSCAASGRIFSYYAKGWYRQAPGKERELVAAITRGGSTNYADSVKGRFTISRDNAKNSVYLQMNSLKPEDTAVYYFAVRGGYTGPTYNYWGQGTQVTVSS”, for which the “polyreactivity (PSR sort gate)” value is “high polyreactivity”.

As for “QVQLVESGGGLVQAGGILRLSCAASGRTFGGNAIGWYRQAPGKERELVAAITVSAGHTYYADSVKGRFTISRDNAKNTVYLQMNSLKPEDTAVYYCAAGVPYYWSYVWKHPRFDHWGQGTQVTVSS”, the “polyreactivity (PSR sort gate)” value is on record as “low polyreactivity”.

With “QVQLVESGGGLVQAGGILRLSCAASGRTFGINAMGWYRQAPGKERELVARIRKTVGSTYYADSVKGRFTISRDNAKNTVYLQMNSLKPEDTAVYYCAADLRYGYLYPYDSWGQGTQVTVSS”, the “polyreactivity (PSR sort gate)” value is listed as “high polyreactivity”.

Regarding “QVQLVESGGGLVQAGGILRLSCAASGRTFGIYVMGWYRQAPGKERELVAAIRSGGTTNYADTVKGRFTISRDNAKNTVYLKMNSLKPEDTAVYYCAASSRRSWTYDYWGQGTQVTVSS”, the “polyreactivity (PSR sort gate)” value is given as “high polyreactivity”.

On to “QVQLVESGGGLVQAGGILRLSCAASGRTFGLYAMGWYRQAPGKERELVASITRSGVSTTYADSVKGRFTISRDNAKNTVYLQMNSLKPVDTAVYYCNTDYTGPDGTDEYDYWGQGTQVTVSS”, for which the “polyreactivity (PSR sort gate)” value is listed as “low polyreactivity”.

For “QVQLVESGGGLVQAGGILRLSCAASGRTFRIYAMGRYRPAPAKVREFVAGITRSDGSTYYADSVKGRFTISRDNAKNTVSFQMNSLKPVDTEVYYCYVEPYSHYRRTEDYWGQGTEVTVSS”, the “polyreactivity (PSR sort gate)” value is on record as “high polyreactivity”.

Take “QVQLVESGGGLVQAGGILRLSCAASGRTFSSNAMGWYRQAPGKERELVAVISSGGSTYYADSVNGRFTISRDNAKNTVYLQLNSLKPEDTAVYYCAAAGGPSGYYYESDYWGQGTQVTVSS”: the “polyreactivity (PSR sort gate)” value is on record as “high polyreactivity”.

Take “QVQLVESGGGLVQAGGILRLSCAASGRTFVRNTMGWYRQAPGKERELVAVISRSGGSTYYADSVKGRFTISRDNAKNTVYLQMNRLKPEDTAVYYCNADTYSAGDYWGQGSQVTVSS”: the “polyreactivity (PSR sort gate)” value is recorded as “high polyreactivity”.

On to “QVQLVESGGGLVQAGGILRLSCAASGRTFYYYAMGWYRHERGKERELVAAISISGGTNYADSVKGRFTISRDNAKNTVYLQMNSLKPEDTAVYYCAAYLRHESPSIWDRYDYWGQGTQVTVSS”, for which the “polyreactivity (PSR sort gate)” value is recorded as “low polyreactivity”.
